Source: patent US20200165325A1

Legend:
[1] = molecular target: HIV-1 Env of strain 0330.v4.c3 (HIV-1)
[2] = molecular target: HIV-1 Env of strain 1006_11_C3_1601 (HIV-1)
[3] = molecular target: HIV-1 Env of strain 1056_10_TA11_1826 (HIV-1)
[4] = molecular target: HIV-1 Env of strain 211-9 (HIV-1)
[5] = molecular target: HIV-1 Env of strain 231965.c01 (HIV-1)
[6] = molecular target: HIV-1 Env of strain 3016.v5.c45 (HIV-1)
[7] = molecular target: HIV-1 Env of strain 3103.v3.c10 (HIV-1)
[8] = molecular target: HIV-1 Env of strain 3301.v1.c24 (HIV-1)
[9] = molecular target: HIV-1 Env of strain 3718.v3.c11 (HIV-1)
[10] = molecular target: HIV-1 Env of strain 3817.v2.c59 (HIV-1)
[11] = molecular target: HIV-1 Env of strain 62357_14_D3_4589 (HIV-1)
[12] = molecular target: HIV-1 Env of strain 6480.v4.c25 (HIV-1)
[13] = molecular target: HIV-1 Env of strain 6545.v4.c1 (HIV-1)
[14] = molecular target: HIV-1 Env of strain 703357.C02 (HIV-1)
[15] = molecular target: HIV-1 Env of strain 89-F1_2_25 (HIV-1)
[16] = molecular target: HIV-1 Env of strain 928-28 (HIV-1)
[17] = molecular target: HIV-1 Env of strain C1080.c03 (HIV-1)
[18] = molecular target: HIV-1 Env of strain C2101.c01 (HIV-1)
[19] = molecular target: HIV-1 Env of strain C3347.c11 (HIV-1)
[20] = molecular target: HIV-1 Env of strain CAP210.2.00.E8 (HIV-1)
[21] = molecular target: HIV-1 Env of strain CAP45.2.00.G3 (HIV-1)
[22] = molecular target: HIV-1 Env of strain CNE21 (HIV-1)
[23] = molecular target: HIV-1 Env of strain CNE30 (HIV-1)
[24] = molecular target: HIV-1 Env of strain CNE53 (HIV-1)
[25] = molecular target: HIV-1 Env of strain CNE58 (HIV-1)
[26] = molecular target: HIV-1 Env of strain Ce0393_C3 (HIV-1)
[27] = molecular target: HIV-1 Env of strain Ce0682_E4 (HIV-1)
[28] = molecular target: HIV-1 Env of strain Ce1176_A3 (HIV-1)
[29] = molecular target: HIV-1 Env of strain Ce2010_F5 (HIV-1)
[30] = molecular target: HIV-1 Env of strain Ce2060_G9 (HIV-1)
[31] = molecular target: HIV-1 Env of strain Du156.12 (HIV-1)
[32] = molecular target: HIV-1 Env of strain Du172.17 (HIV-1)
[33] = molecular target: HIV-1 Env of strain HIV-16845-2.22 (HIV-1)
[34] = molecular target: HIV-1 Env of strain P1981_C5_3 (HIV-1)
[35] = molecular target: HIV-1 Env of strain PVO.4 (HIV-1)
[36] = molecular target: HIV-1 Env of strain Q23.17 (HIV-1)
[37] = molecular target: HIV-1 Env of strain Q769.d22 (HIV-1)
[38] = molecular target: HIV-1 Env of strain Q842.d12 (HIV-1)
[39] = molecular target: HIV-1 Env of strain QH0692.42 (HIV-1)
[40] = molecular target: HIV-1 Env of strain RHPA4259.7 (HIV-1)
[41] = molecular target: HIV-1 Env of strain SC422661.8 (HIV-1)
[42] = molecular target: HIV-1 Env of strain T250-4 (HIV-1)
[43] = molecular target: HIV-1 Env of strain T251-18 (HIV-1)
[44] = molecular target: HIV-1 Env of strain T255-34 (HIV-1)
[45] = molecular target: HIV-1 Env of strain T257-31 (HIV-1)
[46] = molecular target: HIV-1 Env of strain T278-50 (HIV-1)
[47] = molecular target: HIV-1 Env of strain THRO4156.18 (HIV-1)
[48] = molecular target: HIV-1 Env of strain TRJO4551.58 (HIV-1)
[49] = molecular target: HIV-1 Env of strain TRO.11 (HIV-1)
[50] = molecular target: HIV-1 Env of strain WEAU_d15_410_787 (HIV-1)
[51] = molecular target: HIV-1 Env of strain WITO4160.33 (HIV-1)
[52] = molecular target: HIV-1 Env of strain X1193_c1 (HIV-1)
[53] = molecular target: HIV-1 Env of strain X1254_c3 (HIV-1)
[54] = molecular target: HIV-1 Env of strain ZM214M.PL15 (HIV-1)
[55] = molecular target: HIV-1 Env of strain ZM233M.PB6 (HIV-1)
[56] = molecular target: HIV-1 Env of strain ZM249M.PL1 (HIV-1)
[57] = molecular target: HIV-1 Env of strain ZM53M.PB12 (HIV-1)

Question: For NIH45-46 IgG (wild type) (antibody), which In vitro neutralization IC80 [1] is on record?
Answer: 0.3 µg/mL

Question: What about the In vitro neutralization IC80 [2] of the same substance?
Answer: 0.196 µg/mL

Question: What about the In vitro neutralization IC80 [3] of the same substance?
Answer: 0.447 µg/mL

Question: What about the In vitro neutralization IC80 [4] of the same substance?
Answer: > 50 µg/mL

Question: And the In vitro neutralization IC80 [5]?
Answer: 0.126 µg/mL

Question: And the In vitro neutralization IC80 [6]?
Answer: > 50 µg/mL

Question: What about the In vitro neutralization IC80 [7] of the same substance?
Answer: 6.15 µg/mL

Question: What about the In vitro neutralization IC80 [8] of the same substance?
Answer: 0.033 µg/mL

Question: What about the In vitro neutralization IC80 [9] of the same substance?
Answer: > 50 µg/mL

Question: What about the In vitro neutralization IC80 [10] of the same substance?
Answer: > 50 µg/mL

Question: What about the In vitro neutralization IC80 [11] of the same substance?
Answer: 0.19 µg/mL

Question: What about the In vitro neutralization IC80 [12] of the same substance?
Answer: 0.1 µg/mL

Question: What about the In vitro neutralization IC80 [13] of the same substance?
Answer: > 50 µg/mL

Question: What about the In vitro neutralization IC80 [14] of the same substance?
Answer: > 50 µg/mL

Question: And the In vitro neutralization IC80 [15]?
Answer: > 50 µg/mL

Question: And the In vitro neutralization IC80 [16]?
Answer: 0.64 µg/mL

Question: And the In vitro neutralization IC80 [17]?
Answer: 11.6 µg/mL

Question: And the In vitro neutralization IC80 [18]?
Answer: 31.4 µg/mL

Question: And the In vitro neutralization IC80 [19]?
Answer: 0.094 µg/mL

Question: And the In vitro neutralization IC80 [20]?
Answer: > 50 µg/mL

Question: And the In vitro neutralization IC80 [21]?
Answer: > 50 µg/mL

Question: And the In vitro neutralization IC80 [22]?
Answer: 38.1 µg/mL

Question: And the In vitro neutralization IC80 [23]?
Answer: 1.07 µg/mL

Question: And the In vitro neutralization IC80 [24]?
Answer: 0.039 µg/mL

Question: And the In vitro neutralization IC80 [25]?
Answer: 2.08 µg/mL

Question: What about the In vitro neutralization IC80 [26] of the same substance?
Answer: 0.936 µg/mL

Question: And the In vitro neutralization IC80 [27]?
Answer: 0.155 µg/mL

Question: And the In vitro neutralization IC80 [28]?
Answer: 3.17 µg/mL

Question: And the In vitro neutralization IC80 [29]?
Answer: 0.357 µg/mL

Question: And the In vitro neutralization IC80 [30]?
Answer: 0.29 µg/mL

Question: What about the In vitro neutralization IC80 [31] of the same substance?
Answer: 0.054 µg/mL

Question: What about the In vitro neutralization IC80 [32] of the same substance?
Answer: > 50 µg/mL

Question: What about the In vitro neutralization IC80 [33] of the same substance?
Answer: 22.6 µg/mL

Question: And the In vitro neutralization IC80 [34]?
Answer: 0.24 µg/mL

Question: And the In vitro neutralization IC80 [35]?
Answer: 0.41 µg/mL

Question: And the In vitro neutralization IC80 [36]?
Answer: 0.5 µg/mL

Question: And the In vitro neutralization IC80 [37]?
Answer: 0.033 µg/mL

Question: And the In vitro neutralization IC80 [38]?
Answer: 0.073 µg/mL

Question: And the In vitro neutralization IC80 [39]?
Answer: 1.71 µg/mL

Question: What about the In vitro neutralization IC80 [40] of the same substance?
Answer: 0.047 µg/mL

Question: What about the In vitro neutralization IC80 [41] of the same substance?
Answer: 0.13 µg/mL

Question: And the In vitro neutralization IC80 [42]?
Answer: > 50 µg/mL

Question: What about the In vitro neutralization IC80 [43] of the same substance?
Answer: 3.68 µg/mL

Question: What about the In vitro neutralization IC80 [44] of the same substance?
Answer: 3.44 µg/mL

Question: What about the In vitro neutralization IC80 [45] of the same substance?
Answer: 1.38 µg/mL

Question: And the In vitro neutralization IC80 [46]?
Answer: > 50 µg/mL

Question: And the In vitro neutralization IC80 [47]?
Answer: 8.22 µg/mL

Question: What about the In vitro neutralization IC80 [48] of the same substance?
Answer: 0.13 µg/mL

Question: And the In vitro neutralization IC80 [49]?
Answer: 7.49 µg/mL

Question: What about the In vitro neutralization IC80 [50] of the same substance?
Answer: 0.015 µg/mL

Question: And the In vitro neutralization IC80 [51]?
Answer: 0.26 µg/mL

Question: And the In vitro neutralization IC80 [52]?
Answer: 0.064 µg/mL

Question: And the In vitro neutralization IC80 [53]?
Answer: 0.107 µg/mL

Question: What about the In vitro neutralization IC80 [54] of the same substance?
Answer: 0.59 µg/mL

Question: And the In vitro neutralization IC80 [55]?
Answer: 14.2 µg/mL

Question: And the In vitro neutralization IC80 [56]?
Answer: 0.053 µg/mL

Question: And the In vitro neutralization IC80 [57]?
Answer: 0.61 µg/mL
